Assay results published in patent US20260209386A1 (MYTHIC THERAPEUTICS, published 2026).
Numbering of substitutions follows the chain as printed.

T1: Human PTK7 Protein, His Tag, Acro Biosystems (human, UniProt Q13308 31-704)
T1 construct: Bought protein; also called CCK4; not shown: His tag
T1 sequence: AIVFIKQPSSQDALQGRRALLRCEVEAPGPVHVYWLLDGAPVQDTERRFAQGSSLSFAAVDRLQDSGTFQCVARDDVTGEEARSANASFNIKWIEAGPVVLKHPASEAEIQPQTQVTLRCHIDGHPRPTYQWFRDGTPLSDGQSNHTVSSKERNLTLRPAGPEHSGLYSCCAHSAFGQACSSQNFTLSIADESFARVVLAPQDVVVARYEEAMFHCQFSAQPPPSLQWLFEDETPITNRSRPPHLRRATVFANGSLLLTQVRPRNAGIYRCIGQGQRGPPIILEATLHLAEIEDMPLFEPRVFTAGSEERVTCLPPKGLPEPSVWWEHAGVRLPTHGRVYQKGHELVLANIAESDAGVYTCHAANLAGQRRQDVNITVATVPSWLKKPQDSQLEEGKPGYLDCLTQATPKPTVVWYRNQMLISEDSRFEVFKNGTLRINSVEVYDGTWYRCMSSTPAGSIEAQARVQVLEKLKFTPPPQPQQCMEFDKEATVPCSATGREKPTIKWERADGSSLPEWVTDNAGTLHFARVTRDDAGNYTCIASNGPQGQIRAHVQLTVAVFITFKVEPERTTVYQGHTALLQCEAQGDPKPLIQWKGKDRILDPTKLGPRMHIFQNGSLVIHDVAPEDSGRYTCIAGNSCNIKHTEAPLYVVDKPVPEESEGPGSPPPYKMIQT

T2: Human PTK7 Protein, His Tag (Acro Biosystems) (human, UniProt Q13308 31-704)
T2 construct: Bought recombinant protein; also called CCK4; tyrosine-protein kinase-like 7; not shown: His tag
T2 sequence: T1 sequence

B1: MYT11233 (antibody, V domains shown)
VH: EVQLVESGGGLVQPGGSLRLSCTASGIDLSSYVMGWVRQAPGKGLEWVGYIYGGGGTYYATWARGRFTISRDTSKNTVYLQMNSLRAEDTAVYFCARAAADFYFNLWGQGTLVTVSS
VL: EIVMTQSPSTLSASVGDRVIITCQASQSISSYLAWYQQKPGKAPKLLIYDIHDLASGVPSRFSGSGSGAEFTLTISSLQPDDFATYYCQSYYWISNSGAAFGQGTKLTVL
notes: LC variant of MYT9460, sub at LCV pos 52 (L2 03)
B2: MYT11234 (antibody, V domains shown)
VH: B1 VH
VL: B1 VL with H52S, D53H
notes: LC variant of MYT9460, sub at LCV pos 53 (L2 04)
B3: MYT11237 (antibody, V domains shown)
VH: B1 VH
VL: B1 VL with H52S, S56H
notes: LC variant of MYT9460, sub at LCV pos 56 (L2 07)
B4: MYT11241 (antibody, V domains shown)
VH: B1 VH
VL: B1 VL with H52S, Y92H
notes: LC variant of MYT9460, sub at LCV pos 92 (L3 04)
B5: MYT11251 (antibody, V domains shown)
VH: B1 VH
VL: B1 VL with D50A, H52S
notes: LC variant of MYT9460, Ala sub at LCV pos 50 (L2 01)
B6: MYT11242 (antibody, V domains shown)
VH: B1 VH
VL: B1 VL with H52S, W93H
notes: LC variant of MYT9460, sub at LCV pos 93 (L3 05)
B7: MYT11239 (antibody, V domains shown)
VH: B1 VH
VL: B1 VL with H52S, S90H
notes: LC variant of MYT9460, sub at LCV pos 90 (L3 02)
B8: MYT11235 (antibody, V domains shown)
VH: B1 VH
VL: B1 VL with H52S, L54H
notes: LC variant of MYT9460, sub at LCV pos 54 (L2 05)
B9: MYT11252 (antibody, V domains shown)
VH: B1 VH
VL: B1 VL with H52S, D53A
notes: LC variant of MYT9460, Ala sub at LCV pos 53 (L2 04)
B10: MYT11341 (antibody, V domains shown)
VH: EVQLVESGGGLVQPGGSLRLSCTASGIHLSNYAVIWVRQAPGKGLEWVGIIYTYDTTYYANWAKGRFTISRDTSKNTVYLQMNSLRAEDTAVYFCARSFSDISDLIKLWGQGTLVTVSS
VL: EIVMTQSPSTLSASVGDRVIITCQASQSLYNNKDLAWYQQKPGKAPKLLIYEASKLASGVPSRFSGSGSGAEFTLTISSLQPDDFATYYCLGEFSCGSGDCLAFGQGTKLTVL
notes: MYT9797 HC variant; captured via anti-human Fc
B11: MYT11391 (antibody, V domains shown)
VH: B10 VH with H28D
VL: B10 VL with N32H
notes: MYT9797 LC variant; captured via anti-human Fc
B12: MYT11343 (antibody, V domains shown)
VH: B10 VH with H28D, S30H
VL: B10 VL
notes: as for B10
B13: MYT11364 (antibody, V domains shown)
VH: B10 VH with H28D, G65H
VL: B10 VL
notes: as for B10
B14: MYT11385 (antibody, V domains shown)
VH: B10 VH with H28D
VL: B10 VL with S26H
notes: as for B11
B15: MYT11347 (antibody, V domains shown)
VH: B10 VH with H28D, V34H
VL: B10 VL
notes: as for B10
B16: MYT11339 (antibody, V domains shown)
VH: B10 VH with G26H, H28D
VL: B10 VL
notes: as for B10
B17: MYT11348 (antibody, V domains shown)
VH: B10 VH with H28D, I35H
VL: B10 VL
notes: as for B10
B18: MYT11342 (antibody, V domains shown)
VH: B10 VH with H28D, L29H
VL: B10 VL
notes: as for B10
B19: MYT11386 (antibody, V domains shown)
VH: B10 VH with H28D
VL: B10 VL with Q27H
notes: as for B11
B20: MYT11387 (antibody, V domains shown)
VH: B10 VH with H28D
VL: B10 VL with S28H
notes: as for B11
B21: MYT11344 (antibody, V domains shown)
VH: B10 VH with H28D, N31H
VL: B10 VL
notes: as for B10
B22: MYT11361 (antibody, V domains shown)
VH: B10 VH with H28D, W62H
VL: B10 VL
notes: as for B10
B23: MYT11360 (antibody, V domains shown)
VH: B10 VH with H28D, N61H
VL: B10 VL
notes: as for B10
B24: MYT11368 (antibody, V domains shown)
VH: B10 VH with H28D, F99H
VL: B10 VL
notes: as for B10
B25: MYT11350 (antibody, V domains shown)
VH: B10 VH with H28D, I51H
VL: B10 VL
notes: as for B10
B26: MYT11399 (antibody, V domains shown)
VH: B10 VH with H28D
VL: B10 VL with K55H
notes: as for B11
B27: MYT11358 (antibody, V domains shown)
VH: B10 VH with H28D, Y59H
VL: B10 VL
notes: as for B10
B28: MYT11362 (antibody, V domains shown)
VH: B10 VH with H28D, A63H
VL: B10 VL
notes: as for B10
B29: MYT11377 (antibody, V domains shown)
VH: B10 VH with H28D, L108H
VL: B10 VL
notes: as for B10
B30: MYT11340 (antibody, V domains shown)
VH: B10 VH with I27H, H28D
VL: B10 VL
notes: as for B10
B31: MYT11383 (antibody, V domains shown)
VH: B10 VH with H28D
VL: B10 VL with Q24H
notes: as for B11
B32: MYT11379 (antibody, V domains shown)
VH: B10 VH with H28A
VL: B10 VL
notes: MYT9797 HC alanine variant; captured via anti-human Fc
B33: MYT11345 (antibody, V domains shown)
VH: B10 VH with H28D, Y32H
VL: B10 VL
notes: as for B10
B34: MYT11366 (antibody, V domains shown)
VH: B10 VH with H28D, R97H
VL: B10 VL
notes: as for B10
B35: MYT11359 (antibody, V domains shown)
VH: B10 VH with H28D, A60H
VL: B10 VL
notes: as for B10
B36: MYT11375 (antibody, V domains shown)
VH: B10 VH with H28D, I106H
VL: B10 VL
notes: as for B10

Biological target: T1, Human PTK7 Protein, His Tag, Acro …
Assay: BLI (Octet), antibody on anti-human Fc sensor, 50 nM PTK7, dissociation at pH 7.4 or 5.4; 2 = substantially similar binding relative to parent

Binding result, binds:
B1
B2
B3
B4
B5
B6
B7
B8
B9

Biological target: T2, Human PTK7 Protein, His Tag (Acro …)
Assay: BLI, antibody on anti-human Fc sensor, 50 nM PTK7 at pH 7.4, dissociation at pH 7.4 or 5.4; 2 = substantially similar binding relative to parent

Binding result, binds:
B10
B11
B12
B13
B14
B15
B16
B17
B18
B19
B20
B21
B22
B23
B24
B25
B26
B27
B28
B29
B30
B31
B32
B33
B34
B35
B36
